Results on six molecules are retold here after PMC6234985 (Cell, 2018).

Read-outs that look alike come from different tables or passages of the source.

The target in data set [1] is T1, MBP-FUS (UniProt P35637 1-526). As to the kind of experiment: gel filtration co-elution. (In general: In gel filtration, larger molecules generally elute earlier.)
The target of the next data set is T2, Karyopherin-β2 (Kapβ2) (human, UniProt Q92973-2 1-890).
T2 sequence: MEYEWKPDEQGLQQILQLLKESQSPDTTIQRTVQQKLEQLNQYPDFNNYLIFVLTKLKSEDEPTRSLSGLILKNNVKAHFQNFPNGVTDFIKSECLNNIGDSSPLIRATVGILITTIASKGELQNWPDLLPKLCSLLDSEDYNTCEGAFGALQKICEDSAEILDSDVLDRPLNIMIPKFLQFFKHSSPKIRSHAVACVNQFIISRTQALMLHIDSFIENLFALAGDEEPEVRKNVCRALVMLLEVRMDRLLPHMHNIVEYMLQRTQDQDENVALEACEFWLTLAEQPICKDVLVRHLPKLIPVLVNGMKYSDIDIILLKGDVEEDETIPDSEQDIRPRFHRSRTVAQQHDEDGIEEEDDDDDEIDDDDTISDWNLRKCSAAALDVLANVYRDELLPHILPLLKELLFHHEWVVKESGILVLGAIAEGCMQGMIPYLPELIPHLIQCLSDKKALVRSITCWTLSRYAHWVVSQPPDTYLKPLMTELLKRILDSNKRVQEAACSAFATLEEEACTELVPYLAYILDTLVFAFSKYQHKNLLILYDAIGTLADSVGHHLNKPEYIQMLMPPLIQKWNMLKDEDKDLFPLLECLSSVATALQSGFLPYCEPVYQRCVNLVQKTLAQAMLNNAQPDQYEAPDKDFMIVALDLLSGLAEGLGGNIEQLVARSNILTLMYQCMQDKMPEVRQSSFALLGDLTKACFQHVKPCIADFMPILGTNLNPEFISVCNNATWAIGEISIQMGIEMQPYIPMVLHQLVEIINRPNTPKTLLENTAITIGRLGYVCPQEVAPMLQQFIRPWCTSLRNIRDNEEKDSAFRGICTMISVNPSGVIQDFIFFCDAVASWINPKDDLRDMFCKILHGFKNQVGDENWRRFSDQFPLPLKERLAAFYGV
Put plainly: ITC. In general terms: Isothermal titration calorimetry measures the heat released or taken up as one component is titrated into another.

Data set [2] addresses T1, MBP-FUS. Put plainly: gel filtration co-elution. This is another data set of the same source.
The target in the next data set is GST-CRM1 (human, UniProt O14980 1-1071). As to the kind of experiment: pull-down.
Chain of GST-CRM1 (O14980 whole entry): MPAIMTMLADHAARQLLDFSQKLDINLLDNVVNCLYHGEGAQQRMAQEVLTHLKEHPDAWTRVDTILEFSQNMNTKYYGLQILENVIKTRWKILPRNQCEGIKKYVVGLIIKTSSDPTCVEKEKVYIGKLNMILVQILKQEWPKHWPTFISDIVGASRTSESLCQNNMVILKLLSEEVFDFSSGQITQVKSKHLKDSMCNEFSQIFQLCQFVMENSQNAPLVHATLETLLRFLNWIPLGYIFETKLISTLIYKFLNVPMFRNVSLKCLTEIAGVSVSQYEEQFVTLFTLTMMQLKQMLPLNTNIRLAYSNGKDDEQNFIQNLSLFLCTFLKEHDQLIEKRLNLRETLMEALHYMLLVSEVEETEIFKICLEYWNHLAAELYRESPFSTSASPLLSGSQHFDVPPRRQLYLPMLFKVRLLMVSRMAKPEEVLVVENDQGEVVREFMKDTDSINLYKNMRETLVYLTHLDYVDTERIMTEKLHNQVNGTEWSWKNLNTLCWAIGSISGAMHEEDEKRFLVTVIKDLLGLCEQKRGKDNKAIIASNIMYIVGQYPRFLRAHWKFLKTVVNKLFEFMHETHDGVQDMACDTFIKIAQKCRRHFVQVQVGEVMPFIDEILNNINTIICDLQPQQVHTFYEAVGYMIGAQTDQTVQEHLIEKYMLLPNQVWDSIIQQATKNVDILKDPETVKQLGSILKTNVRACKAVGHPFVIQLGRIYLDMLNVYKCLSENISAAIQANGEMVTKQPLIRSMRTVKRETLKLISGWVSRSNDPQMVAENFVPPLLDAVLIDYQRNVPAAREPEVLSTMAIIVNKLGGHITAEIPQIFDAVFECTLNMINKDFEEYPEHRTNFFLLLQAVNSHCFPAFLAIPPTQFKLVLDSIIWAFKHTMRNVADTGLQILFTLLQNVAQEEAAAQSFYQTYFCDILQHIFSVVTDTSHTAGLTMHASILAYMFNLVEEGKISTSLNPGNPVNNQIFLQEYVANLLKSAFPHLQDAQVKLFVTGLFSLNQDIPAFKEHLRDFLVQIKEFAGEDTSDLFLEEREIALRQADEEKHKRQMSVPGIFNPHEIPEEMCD
In the next data set the target is T3, FUS(371–526) (UniProt P35637 371-526).
T3 sequence (looked up): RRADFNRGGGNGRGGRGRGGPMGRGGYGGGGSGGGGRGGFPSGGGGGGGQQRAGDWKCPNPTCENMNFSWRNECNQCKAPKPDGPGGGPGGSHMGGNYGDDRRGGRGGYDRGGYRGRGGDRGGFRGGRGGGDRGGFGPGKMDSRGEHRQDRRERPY
Put plainly: crystal structure.

Data set [3] concerns the target T4, FUS (full-length), MBP removed with Tev protease (UniProt P35637 1-526).
T4 sequence (looked up): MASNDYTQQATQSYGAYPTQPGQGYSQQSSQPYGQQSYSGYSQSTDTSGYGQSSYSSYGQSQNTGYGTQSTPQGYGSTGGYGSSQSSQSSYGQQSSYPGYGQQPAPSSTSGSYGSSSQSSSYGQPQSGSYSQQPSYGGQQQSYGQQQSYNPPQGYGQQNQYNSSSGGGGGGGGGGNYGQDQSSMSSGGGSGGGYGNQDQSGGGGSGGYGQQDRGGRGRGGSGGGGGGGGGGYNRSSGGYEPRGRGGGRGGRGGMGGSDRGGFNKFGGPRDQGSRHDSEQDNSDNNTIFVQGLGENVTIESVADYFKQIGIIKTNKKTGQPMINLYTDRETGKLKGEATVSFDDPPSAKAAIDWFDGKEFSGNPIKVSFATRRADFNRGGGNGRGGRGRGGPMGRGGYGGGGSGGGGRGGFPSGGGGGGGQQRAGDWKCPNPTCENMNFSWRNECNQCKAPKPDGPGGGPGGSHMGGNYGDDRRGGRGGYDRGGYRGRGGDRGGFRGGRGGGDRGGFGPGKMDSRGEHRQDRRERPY
Put plainly: crystal structure.

A further data set concerns the target T5, FUS(456–526) (UniProt P35637 456-526).
T5 sequence (looked up): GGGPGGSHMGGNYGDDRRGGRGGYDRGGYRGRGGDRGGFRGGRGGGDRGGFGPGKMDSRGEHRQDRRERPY
As to the kind of experiment: crystal structure.

Consider UUAGGGUUAGGGUUAGGGUUAGGG (structured_RNA) [TERRA RNA], for which the binding result in the data set with MBP-FUS [1] is reported as “binds”.

B1: MBP-FUS(453–526) (domain or fragment, UniProt P35637 453-526, looked up)
chain: DGPGGGPGGSHMGGNYGDDRRGGRGGYDRGGYRGRGGDRGGFRGGRGGGDRGGFGPGKMDSRGEHRQDRRERPY
As to B1, in the data set with Karyopherin-β2 (Kapβ2), the binding result was “binds”. In the case of AUUGAGGAGCAGCAGAGAAGUUGGAGUGAAGGCAGAGAGGGGUUAAGG (ssRNA) [prD (DNMT) RNA], the binding result with MBP-FUS [2] is “binds”.

B2: MBP-FUS(371–526) (domain or fragment, UniProt P35637 371-526, looked up)
chain: RRADFNRGGGNGRGGRGRGGPMGRGGYGGGGSGGGGRGGFPSGGGGGGGQQRAGDWKCPNPTCENMNFSWRNECNQCKAPKPDGPGGGPGGSHMGGNYGDDRRGGRGGYDRGGYRGRGGDRGGFRGGRGGGDRGGFGPGKMDSRGEHRQDRRERPY
In the case of B2, the binding result with Karyopherin-β2 (Kapβ2) was “binds”.

B3: MBP-FUS(NES) chimera (PY-NLS replaced with the NES from the NS2 protein of MVM virus) (other)
chain: MASNDYTQQATQSYGAYPTQPGQGYSQQSSQPYGQQSYSGYSQSTDTSGYGQSSYSSYGQSQNTGYGTQSTPQGYGSTGGYGSSQSSQSSYGQQSSYPGYGQQPAPSSTSGSYGSSSQSSSYGQPQSGSYSQQPSYGGQQQSYGQQQSYNPPQGYGQQNQYNSSSGGGGGGGGGGNYGQDQSSMSSGGGSGGGYGNQDQSGGGGSGGYGQQDRGGRGRGGSGGGGGGGGGGYNRSSGGYEPRGRGGGRGGRGGMGGSDRGGFNKFGGPRDQGSRHDSEQDNSDNNTIFVQGLGENVTIESVADYFKQIGIIKTNKKTGQPMINLYTDRETGKLKGEATVSFDDPPSAKAAIDWFDGKEFSGNPIKVSFATRRADFNRGGGNGRGGRGRGGPMGRGGYGGGGSGGGGRGGFPSGGGGGGGQQRAGDWKCPNPTCENMNFSWRNECNQCKAPKPDGPGGGPGGSHMGGNYGDDRRGGRGGYDRGGYRGRGGDRGGFRGGRGGYSTVDEMTKKFGTLTIH
With B3, the binding result in the data set with GST-CRM1 is “binds”.

B4: Kapβ2Δloop (residues 337–367 replaced with a GGSGGSG linker) (natural protein, human)
chain: MEYEWKPDEQGLQQILQLLKESQSPDTTIQRTVQQKLEQLNQYPDFNNYLIFVLTKLKSEDEPTRSLSGLILKNNVKAHFQNFPNGVTDFIKSECLNNIGDSSPLIRATVGILITTIASKGELQNWPDLLPKLCSLLDSEDYNTCEGAFGALQKICEDSAEILDSDVLDRPLNIMIPKFLQFFKHSSPKIRSHAVACVNQFIISRTQALMLHIDSFIENLFALAGDEEPEVRKNVCRALVMLLEVRMDRLLPHMHNIVEYMLQRTQDQDENVALEACEFWLTLAEQPICKDVLVRHLPKLIPVLVNGMKYSDIDIILLKGDVEEDETIPDSEQDIRGGSGGSGDTISDWNLRKCSAAALDVLANVYRDELLPHILPLLKELLFHHEWVVKESGILVLGAIAEGCMQGMIPYLPELIPHLIQCLSDKKALVRSITCWTLSRYAHWVVSQPPDTYLKPLMTELLKRILDSNKRVQEAACSAFATLEEEACTELVPYLAYILDTLVFAFSKYQHKNLLILYDAIGTLADSVGHHLNKPEYIQMLMPPLIQKWNMLKDEDKDLFPLLECLSSVATALQSGFLPYCEPVYQRCVNLVQKTLAQAMLNNAQPDQYEAPDKDFMIVALDLLSGLAEGLGGNIEQLVARSNILTLMYQCMQDKMPEVRQSSFALLGDLTKACFQHVKPCIADFMPILGTNLNPEFISVCNNATWAIGEISIQMGIEMQPYIPMVLHQLVEIINRPNTPKTLLENTAITIGRLGYVCPQEVAPMLQQFIRPWCTSLRNIRDNEEKDSAFRGICTMISVNPSGVIQDFIFFCDAVASWINPKDDLRDMFCKILHGFKNQVGDENWRRFSDQFPLPLKERLAAFYGV
Turning to B4, the binding result (with FUS(371–526); in data set [3]; with FUS(456–526)) was “binds” each time.
